Laboratory results from paper PMC12576823.

B1: 142F1 Fab (anti-LDLR) (Fab, V domains shown)
VH: EVQLVESGGGLVQPGGSLRLSCAASGFNVYSSSIHWVRQAPGKGLEWVASISSYYGSTYYADSVKGRFTISADTSKNTAYLQMNSLRAEDTAVYYCARWYGYGYYHPYYFGRSYGFDYWGQGTLVTVSS
VL: DIQMTQSPSSLSASVGDRVTITCRASQSVSSAVAWYQQKPGKAPKLLIYSASSLYSGVPSRFSGSRSGTDFTLTISSLQPEDFATYYCQQEWQSLFTFGQGTKVEIK
B2: 142F6 Fab (anti-LDLR) (Fab, V domains shown)
VH: EVQLVESGGGLVQPGGSLRLSCAASGFNFSSSSIHWVRQAPGKGLEWVASIYSSSGYTYYADSVKGRFTISADTSKNTAYLQMNSLRAEDTAVYYCARKWYYGAMDYWGQGTLVTVSS
VL: DIQMTQSPSSLSASVGDRVTITCRASQSVSSAVAWYQQKPGKAPKLLIYSASSLYSGVPSRFSGSRSGTDFTLTISSLQPEDFATYYCQQSSTIWTPLTFGQGTKVEIK

Target: biotinylated cLDLR-TEV-Fc antigen (cleaved form of the low-density lipoprotein receptor) (UniProt P01130)
Sequence of UniProt P01130 (P01130 22-788): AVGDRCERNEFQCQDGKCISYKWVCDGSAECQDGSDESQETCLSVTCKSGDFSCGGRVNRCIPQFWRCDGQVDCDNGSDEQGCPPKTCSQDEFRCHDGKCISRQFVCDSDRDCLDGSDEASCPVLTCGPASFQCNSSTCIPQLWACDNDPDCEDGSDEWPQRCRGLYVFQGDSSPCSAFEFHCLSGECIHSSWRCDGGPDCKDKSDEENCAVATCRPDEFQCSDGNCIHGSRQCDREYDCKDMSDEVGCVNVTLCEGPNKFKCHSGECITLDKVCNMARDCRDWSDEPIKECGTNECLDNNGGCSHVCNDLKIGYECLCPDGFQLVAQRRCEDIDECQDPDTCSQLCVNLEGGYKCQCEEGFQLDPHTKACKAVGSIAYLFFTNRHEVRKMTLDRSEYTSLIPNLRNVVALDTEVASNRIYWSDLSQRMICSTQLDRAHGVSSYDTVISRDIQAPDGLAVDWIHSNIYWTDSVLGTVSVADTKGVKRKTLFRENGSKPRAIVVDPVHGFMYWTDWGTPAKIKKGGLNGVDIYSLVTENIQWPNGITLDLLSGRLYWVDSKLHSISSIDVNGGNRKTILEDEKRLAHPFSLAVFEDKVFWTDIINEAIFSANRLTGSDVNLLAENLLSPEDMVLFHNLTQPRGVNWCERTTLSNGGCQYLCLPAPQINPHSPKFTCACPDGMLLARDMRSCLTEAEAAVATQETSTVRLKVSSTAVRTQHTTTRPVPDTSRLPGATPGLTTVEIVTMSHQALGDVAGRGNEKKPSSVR
Assay: BLI; Octet RED384, room temperature; 20 nM biotinylated antigen-Fc immobilised on SA biosensor; monomeric Fab as analyte in PBS, 0.05% Tween-20, 0.2% BSA; 2:1 heterogeneous ligand model, global fit

Binder	Kd
B1	5.8 nM
B2	16 nM
